Here are results for nine molecules from US20200317768A1 (published 2020).

The target in assay [1] is T1, human FcγRIIaH extracellular domain, C-terminal His-tag (human, UniProt P12318 34-217).
T1 construct: also called human FcγRIIa (type H); FcgRIIaH
T1 sequence: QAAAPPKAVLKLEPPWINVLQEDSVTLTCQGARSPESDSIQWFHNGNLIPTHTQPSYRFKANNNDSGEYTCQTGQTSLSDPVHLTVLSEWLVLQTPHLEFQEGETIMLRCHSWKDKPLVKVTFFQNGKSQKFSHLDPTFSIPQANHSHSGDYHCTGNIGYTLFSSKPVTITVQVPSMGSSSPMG
The assay is described as follows: SPR 25C; FcgR bound per captured antibody, relative to parent B3. As for the experimental part: (§1) These Fc variants are referred to as B3 variants. B3 variants were expressed and the binding of protein-A purified antibodies to each FcγR (FcγRIIa type H. FcγRIIa type R, FcγRIIb, and FcγRIIIaF) was comprehensively evaluated as follows. Analysis of interaction between each altered antibody and the Fcγ receptor prepared as mentioned above was carried out using BIACORE® T100 (GE Healthcare), BIACORE® T200 (GE Healthcare), BIACORE® A100, or BIACORE® 4000. HBS-EP+(GE Healthcare) was used as the running buffer, and the measurement temperature was set to 25° C. Chips produced by immobilizing Protein A (Thermo Scientific), Protein A/G (Thermo Scientific), or Protein L (ACTIGEN or BioVision) by the amine coupling method to a Series S sensor Chip CM5 or CM4 (GE Healthcare) were used. After capturing of antibodies of interest onto these sensor chips, an Fcγ receptor diluted with the running buffer was allowed to interact, the amount bound to an antibody was measured. However, since the amount of Fcγ receptor bound depends on the amount of the captured antibodies, the amount of Fcγ receptor bound was divided by the amount of each antibody captured to obtain corrected values, and these values were compared. Furthermore, antibodies captured onto the chips were washed by 10 mM glycine-HCl pH1.5, and the chips were regenerated and used repeatedly. […] The value obtained by multiplying this value by 100 was used as an indicator of the relative FcγR-binding activity of each variant.

Assay [2] has as its target T2, human FcγRIIaR extracellular domain, C-terminal His-tag (human, UniProt P12318 34-217).
T2 construct: also called human FcγRIIa (type R); FcgRIIaR
T2 chain: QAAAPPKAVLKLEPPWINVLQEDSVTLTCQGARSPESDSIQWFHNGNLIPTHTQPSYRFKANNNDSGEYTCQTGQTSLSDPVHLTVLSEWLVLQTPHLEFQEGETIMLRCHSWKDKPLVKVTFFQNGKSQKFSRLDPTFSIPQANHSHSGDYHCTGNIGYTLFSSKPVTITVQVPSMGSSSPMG
Described as above. The procedure: as §1

B1: GpH7-B3 variant A327N/GpL16-k0 (antibody, human IgG1, kappa)
heavy: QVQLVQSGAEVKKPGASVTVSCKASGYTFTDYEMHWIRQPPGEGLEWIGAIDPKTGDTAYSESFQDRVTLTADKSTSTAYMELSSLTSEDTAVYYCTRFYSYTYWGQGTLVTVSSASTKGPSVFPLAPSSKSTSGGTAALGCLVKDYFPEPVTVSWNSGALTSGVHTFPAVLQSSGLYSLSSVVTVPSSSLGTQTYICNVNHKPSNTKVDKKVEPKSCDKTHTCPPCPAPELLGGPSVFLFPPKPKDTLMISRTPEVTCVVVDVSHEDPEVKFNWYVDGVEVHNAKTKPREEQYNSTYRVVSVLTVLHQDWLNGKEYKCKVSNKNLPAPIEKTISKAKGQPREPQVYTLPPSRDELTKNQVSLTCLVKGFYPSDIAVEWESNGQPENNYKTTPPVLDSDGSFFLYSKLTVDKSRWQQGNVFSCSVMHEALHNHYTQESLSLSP
light: DIVMTQSPLSLPVTPGEPASISCQASESLVHSNRNTYLHWYLQKPGQSPQLLIYKVSNRFSGVPDRFSGSGSGTDFTLKISRVEAEDVGVYYCSQNTHVPPTFGQGTKVEIERTVAAPSVFIFPPSDEQLKSGTASVVCLLNNFYPREAKVQWKVDNALQSGNSQESVTEQDSKDSTYSLSSTLTLSKADYEKHKVYACEVTHQGLSSPVTKSFNRGEC
As to B1, the “Binding to human FcgRs (parent B3 = 100)” value was found to be 95 parent B3 = 100 in assay [1] and 48 parent B3 = 100 in assay [2].

B2: GpH7-B3 variant A330R/GpL16-k0 (antibody, human IgG1, kappa)
heavy: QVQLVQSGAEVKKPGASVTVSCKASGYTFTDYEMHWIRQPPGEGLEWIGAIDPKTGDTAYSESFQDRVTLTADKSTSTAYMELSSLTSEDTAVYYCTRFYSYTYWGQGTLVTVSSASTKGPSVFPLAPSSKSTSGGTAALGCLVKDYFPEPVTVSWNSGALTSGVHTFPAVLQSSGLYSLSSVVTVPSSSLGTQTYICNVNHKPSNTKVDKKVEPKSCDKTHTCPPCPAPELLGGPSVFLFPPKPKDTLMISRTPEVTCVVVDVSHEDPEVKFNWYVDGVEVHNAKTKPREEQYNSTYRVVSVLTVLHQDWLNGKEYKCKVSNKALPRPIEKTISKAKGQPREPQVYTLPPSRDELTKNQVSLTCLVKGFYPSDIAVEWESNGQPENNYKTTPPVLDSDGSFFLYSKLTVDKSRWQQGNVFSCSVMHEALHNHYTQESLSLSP
light: DIVMTQSPLSLPVTPGEPASISCQASESLVHSNRNTYLHWYLQKPGQSPQLLIYKVSNRFSGVPDRFSGSGSGTDFTLKISRVEAEDVGVYYCSQNTHVPPTFGQGTKVEIERTVAAPSVFIFPPSDEQLKSGTASVVCLLNNFYPREAKVQWKVDNALQSGNSQESVTEQDSKDSTYSLSSTLTLSKADYEKHKVYACEVTHQGLSSPVTKSFNRGEC
Consider B2, for which the “Binding to human FcgRs (parent B3 = 100)” value in assay [1] turned out to be 116 parent B3 = 100; in assay [2], 123 parent B3 = 100.

B3: GpH7-B3 variant P238E/GpL16-k0 (antibody, human IgG1, kappa)
heavy: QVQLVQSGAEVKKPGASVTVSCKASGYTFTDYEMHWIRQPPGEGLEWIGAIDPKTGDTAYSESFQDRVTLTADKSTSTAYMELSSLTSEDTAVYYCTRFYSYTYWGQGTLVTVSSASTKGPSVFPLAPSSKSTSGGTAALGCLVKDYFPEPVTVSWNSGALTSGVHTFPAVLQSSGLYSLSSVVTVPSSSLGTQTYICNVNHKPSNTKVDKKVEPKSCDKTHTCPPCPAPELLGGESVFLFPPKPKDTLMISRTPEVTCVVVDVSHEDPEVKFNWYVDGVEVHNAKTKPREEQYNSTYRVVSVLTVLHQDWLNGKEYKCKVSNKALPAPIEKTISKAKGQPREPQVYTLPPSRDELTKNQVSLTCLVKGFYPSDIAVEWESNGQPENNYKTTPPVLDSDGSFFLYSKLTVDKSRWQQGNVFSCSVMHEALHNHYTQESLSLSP
light: DIVMTQSPLSLPVTPGEPASISCQASESLVHSNRNTYLHWYLQKPGQSPQLLIYKVSNRFSGVPDRFSGSGSGTDFTLKISRVEAEDVGVYYCSQNTHVPPTFGQGTKVEIERTVAAPSVFIFPPSDEQLKSGTASVVCLLNNFYPREAKVQWKVDNALQSGNSQESVTEQDSKDSTYSLSSTLTLSKADYEKHKVYACEVTHQGLSSPVTKSFNRGEC
As to B3, the “Binding to human FcgRs (parent B3 = 100)” value in assay [1] amounted to 21 parent B3 = 100; in assay [2], 2 parent B3 = 100.

B4: GpH7-B3 variant P238M/GpL16-k0 (antibody, human IgG1, kappa)
heavy: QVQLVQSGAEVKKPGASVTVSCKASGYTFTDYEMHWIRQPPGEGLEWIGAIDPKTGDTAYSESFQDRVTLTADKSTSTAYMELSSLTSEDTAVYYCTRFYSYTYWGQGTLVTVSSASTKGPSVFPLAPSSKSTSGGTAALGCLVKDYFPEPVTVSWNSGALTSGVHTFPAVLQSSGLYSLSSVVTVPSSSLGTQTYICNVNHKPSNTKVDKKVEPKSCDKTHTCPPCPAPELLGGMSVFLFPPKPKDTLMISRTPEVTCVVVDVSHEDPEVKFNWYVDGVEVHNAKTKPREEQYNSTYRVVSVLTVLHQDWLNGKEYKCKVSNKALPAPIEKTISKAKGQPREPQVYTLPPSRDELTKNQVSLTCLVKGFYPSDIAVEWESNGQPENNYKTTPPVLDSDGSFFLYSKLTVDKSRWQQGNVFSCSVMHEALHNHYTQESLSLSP
light: DIVMTQSPLSLPVTPGEPASISCQASESLVHSNRNTYLHWYLQKPGQSPQLLIYKVSNRFSGVPDRFSGSGSGTDFTLKISRVEAEDVGVYYCSQNTHVPPTFGQGTKVEIERTVAAPSVFIFPPSDEQLKSGTASVVCLLNNFYPREAKVQWKVDNALQSGNSQESVTEQDSKDSTYSLSSTLTLSKADYEKHKVYACEVTHQGLSSPVTKSFNRGEC
In the case of B4, the “Binding to human FcgRs (parent B3 = 100)” value in assay [1] was found to be 86 parent B3 = 100.

B5: GpH7-B3 variant N325L/GpL16-k0 (antibody, human IgG1, kappa)
heavy: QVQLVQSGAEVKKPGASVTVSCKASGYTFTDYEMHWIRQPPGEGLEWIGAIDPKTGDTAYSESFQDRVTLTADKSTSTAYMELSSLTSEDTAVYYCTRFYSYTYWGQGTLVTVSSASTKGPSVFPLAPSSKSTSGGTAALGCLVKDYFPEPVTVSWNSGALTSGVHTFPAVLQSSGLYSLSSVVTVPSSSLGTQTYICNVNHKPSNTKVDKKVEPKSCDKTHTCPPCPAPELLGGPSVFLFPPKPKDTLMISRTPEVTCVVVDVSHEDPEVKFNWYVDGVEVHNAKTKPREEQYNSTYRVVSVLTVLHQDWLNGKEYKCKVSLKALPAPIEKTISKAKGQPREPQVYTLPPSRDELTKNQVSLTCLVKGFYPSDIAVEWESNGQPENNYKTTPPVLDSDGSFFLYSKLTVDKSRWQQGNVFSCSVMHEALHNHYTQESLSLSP
light: DIVMTQSPLSLPVTPGEPASISCQASESLVHSNRNTYLHWYLQKPGQSPQLLIYKVSNRFSGVPDRFSGSGSGTDFTLKISRVEAEDVGVYYCSQNTHVPPTFGQGTKVEIERTVAAPSVFIFPPSDEQLKSGTASVVCLLNNFYPREAKVQWKVDNALQSGNSQESVTEQDSKDSTYSLSSTLTLSKADYEKHKVYACEVTHQGLSSPVTKSFNRGEC
On to B5, for which the “Binding to human FcgRs (parent B3 = 100)” value in assay [1] is 93 parent B3 = 100; in assay [2] it was 13 parent B3 = 100.

B6: GpH7-B3 variant G237Y/GpL16-k0 (antibody, human IgG1, kappa)
heavy: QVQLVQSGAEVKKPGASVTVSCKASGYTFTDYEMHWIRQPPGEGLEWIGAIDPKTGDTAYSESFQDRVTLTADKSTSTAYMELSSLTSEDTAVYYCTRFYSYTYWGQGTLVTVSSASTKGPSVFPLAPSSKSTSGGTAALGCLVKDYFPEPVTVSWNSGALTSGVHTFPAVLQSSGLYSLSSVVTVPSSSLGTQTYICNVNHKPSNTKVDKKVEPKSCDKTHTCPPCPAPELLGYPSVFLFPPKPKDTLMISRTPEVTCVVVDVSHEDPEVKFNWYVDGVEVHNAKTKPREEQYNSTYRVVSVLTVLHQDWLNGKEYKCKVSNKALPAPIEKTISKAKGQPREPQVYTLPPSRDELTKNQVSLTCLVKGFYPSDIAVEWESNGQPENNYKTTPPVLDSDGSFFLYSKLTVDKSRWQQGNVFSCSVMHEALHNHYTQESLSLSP
light: DIVMTQSPLSLPVTPGEPASISCQASESLVHSNRNTYLHWYLQKPGQSPQLLIYKVSNRFSGVPDRFSGSGSGTDFTLKISRVEAEDVGVYYCSQNTHVPPTFGQGTKVEIERTVAAPSVFIFPPSDEQLKSGTASVVCLLNNFYPREAKVQWKVDNALQSGNSQESVTEQDSKDSTYSLSSTLTLSKADYEKHKVYACEVTHQGLSSPVTKSFNRGEC
For B6, the “Binding to human FcgRs (parent B3 = 100)” value in assay [1] is 77 parent B3 = 100.

B7: GpH7-B3 variant P271E/GpL16-k0 (antibody, human IgG1, kappa)
heavy: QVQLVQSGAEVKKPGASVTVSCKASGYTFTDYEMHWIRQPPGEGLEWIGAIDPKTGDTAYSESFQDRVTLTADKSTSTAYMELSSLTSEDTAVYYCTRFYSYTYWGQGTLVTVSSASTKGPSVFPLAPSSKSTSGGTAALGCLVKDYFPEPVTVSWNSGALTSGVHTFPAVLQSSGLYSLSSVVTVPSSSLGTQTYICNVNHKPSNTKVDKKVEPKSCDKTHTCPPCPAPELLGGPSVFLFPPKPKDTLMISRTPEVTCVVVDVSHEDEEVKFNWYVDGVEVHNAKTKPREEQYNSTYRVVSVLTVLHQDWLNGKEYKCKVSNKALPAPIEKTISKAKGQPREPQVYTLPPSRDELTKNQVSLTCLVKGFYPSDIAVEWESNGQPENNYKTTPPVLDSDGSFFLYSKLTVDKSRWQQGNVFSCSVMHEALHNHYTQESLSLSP
light: DIVMTQSPLSLPVTPGEPASISCQASESLVHSNRNTYLHWYLQKPGQSPQLLIYKVSNRFSGVPDRFSGSGSGTDFTLKISRVEAEDVGVYYCSQNTHVPPTFGQGTKVEIERTVAAPSVFIFPPSDEQLKSGTASVVCLLNNFYPREAKVQWKVDNALQSGNSQESVTEQDSKDSTYSLSSTLTLSKADYEKHKVYACEVTHQGLSSPVTKSFNRGEC
As for B7, the “Binding to human FcgRs (parent B3 = 100)” value in assay [1] was 90 parent B3 = 100; in assay [2], 51 parent B3 = 100.

B8: GpH7-B3 variant A330K/GpL16-k0 (antibody, human IgG1, kappa)
heavy: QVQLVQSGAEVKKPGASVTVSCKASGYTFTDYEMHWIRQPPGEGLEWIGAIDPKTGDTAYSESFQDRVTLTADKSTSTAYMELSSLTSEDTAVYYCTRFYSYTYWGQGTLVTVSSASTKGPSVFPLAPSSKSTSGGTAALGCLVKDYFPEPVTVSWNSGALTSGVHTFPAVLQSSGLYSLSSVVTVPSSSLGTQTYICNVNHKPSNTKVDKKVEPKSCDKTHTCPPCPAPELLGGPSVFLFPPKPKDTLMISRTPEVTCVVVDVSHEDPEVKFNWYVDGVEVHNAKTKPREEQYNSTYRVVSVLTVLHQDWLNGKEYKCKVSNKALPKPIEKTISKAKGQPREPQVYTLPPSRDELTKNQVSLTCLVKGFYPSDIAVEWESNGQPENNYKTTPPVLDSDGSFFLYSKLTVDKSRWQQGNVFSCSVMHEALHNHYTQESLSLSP
light: DIVMTQSPLSLPVTPGEPASISCQASESLVHSNRNTYLHWYLQKPGQSPQLLIYKVSNRFSGVPDRFSGSGSGTDFTLKISRVEAEDVGVYYCSQNTHVPPTFGQGTKVEIERTVAAPSVFIFPPSDEQLKSGTASVVCLLNNFYPREAKVQWKVDNALQSGNSQESVTEQDSKDSTYSLSSTLTLSKADYEKHKVYACEVTHQGLSSPVTKSFNRGEC
With B8, the “Binding to human FcgRs (parent B3 = 100)” value in assay [1] is 121 parent B3 = 100; in assay [2], 127 parent B3 = 100.

B9: GpH7-B3 variant N325I/GpL16-k0 (antibody, human IgG1, kappa)
heavy: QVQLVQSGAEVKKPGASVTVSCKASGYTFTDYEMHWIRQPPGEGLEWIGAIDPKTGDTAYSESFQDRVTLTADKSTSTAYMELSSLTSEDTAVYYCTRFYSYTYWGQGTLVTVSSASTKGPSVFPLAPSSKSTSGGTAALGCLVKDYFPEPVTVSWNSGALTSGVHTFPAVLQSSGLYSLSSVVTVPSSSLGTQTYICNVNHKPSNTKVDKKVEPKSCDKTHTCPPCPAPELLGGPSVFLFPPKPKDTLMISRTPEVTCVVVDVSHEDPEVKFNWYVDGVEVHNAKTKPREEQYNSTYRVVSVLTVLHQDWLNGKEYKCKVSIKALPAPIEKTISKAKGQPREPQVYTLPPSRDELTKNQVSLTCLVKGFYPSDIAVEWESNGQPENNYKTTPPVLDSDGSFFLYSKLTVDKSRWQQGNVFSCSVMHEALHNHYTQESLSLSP
light: DIVMTQSPLSLPVTPGEPASISCQASESLVHSNRNTYLHWYLQKPGQSPQLLIYKVSNRFSGVPDRFSGSGSGTDFTLKISRVEAEDVGVYYCSQNTHVPPTFGQGTKVEIERTVAAPSVFIFPPSDEQLKSGTASVVCLLNNFYPREAKVQWKVDNALQSGNSQESVTEQDSKDSTYSLSSTLTLSKADYEKHKVYACEVTHQGLSSPVTKSFNRGEC
For the molecule B9, the “Binding to human FcgRs (parent B3 = 100)” value in assay [1] was determined as 76 parent B3 = 100.
